Patent US20160168251A1 (MorphoSys, published 2016)

T1: human NPRA on HEK293 cells, without added ligand (human, UniProt P16066 33-1061)
T1 construct: a signal peptide is not delimited; also called HEK NPRA cells; HEK hNPRA cells
T1 sequence: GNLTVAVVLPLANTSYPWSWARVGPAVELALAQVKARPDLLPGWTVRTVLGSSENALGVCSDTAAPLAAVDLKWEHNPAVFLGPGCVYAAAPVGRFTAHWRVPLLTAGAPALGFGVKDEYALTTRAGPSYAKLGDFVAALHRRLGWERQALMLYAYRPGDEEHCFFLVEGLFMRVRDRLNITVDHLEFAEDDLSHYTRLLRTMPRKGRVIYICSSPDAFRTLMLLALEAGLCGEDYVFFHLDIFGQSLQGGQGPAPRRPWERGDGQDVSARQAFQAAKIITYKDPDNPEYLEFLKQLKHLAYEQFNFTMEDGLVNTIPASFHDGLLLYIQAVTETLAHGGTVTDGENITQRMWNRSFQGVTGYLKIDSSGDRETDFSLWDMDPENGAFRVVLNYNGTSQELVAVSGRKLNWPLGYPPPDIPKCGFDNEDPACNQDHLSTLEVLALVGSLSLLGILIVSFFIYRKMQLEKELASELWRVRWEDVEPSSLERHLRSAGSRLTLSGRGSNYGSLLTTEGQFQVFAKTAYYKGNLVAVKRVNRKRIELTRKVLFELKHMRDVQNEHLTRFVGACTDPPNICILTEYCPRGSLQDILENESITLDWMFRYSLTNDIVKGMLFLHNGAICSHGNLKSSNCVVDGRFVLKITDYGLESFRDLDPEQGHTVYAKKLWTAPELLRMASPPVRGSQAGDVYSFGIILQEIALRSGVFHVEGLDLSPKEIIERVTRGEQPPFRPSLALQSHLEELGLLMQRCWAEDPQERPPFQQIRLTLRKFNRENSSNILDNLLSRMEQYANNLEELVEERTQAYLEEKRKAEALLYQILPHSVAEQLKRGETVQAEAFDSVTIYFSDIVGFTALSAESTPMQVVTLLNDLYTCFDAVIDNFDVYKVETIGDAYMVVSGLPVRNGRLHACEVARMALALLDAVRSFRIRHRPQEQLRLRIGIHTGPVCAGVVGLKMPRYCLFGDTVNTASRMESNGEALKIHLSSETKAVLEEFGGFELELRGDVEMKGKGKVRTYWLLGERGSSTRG

T2: human NPRB on HEK293 cells, without added ligand (human, UniProt P20594 23-1047)
T2 construct: whole, on cells; also called HEK NPRB cells; natriuretic peptide receptor B
T2 sequence (looked up): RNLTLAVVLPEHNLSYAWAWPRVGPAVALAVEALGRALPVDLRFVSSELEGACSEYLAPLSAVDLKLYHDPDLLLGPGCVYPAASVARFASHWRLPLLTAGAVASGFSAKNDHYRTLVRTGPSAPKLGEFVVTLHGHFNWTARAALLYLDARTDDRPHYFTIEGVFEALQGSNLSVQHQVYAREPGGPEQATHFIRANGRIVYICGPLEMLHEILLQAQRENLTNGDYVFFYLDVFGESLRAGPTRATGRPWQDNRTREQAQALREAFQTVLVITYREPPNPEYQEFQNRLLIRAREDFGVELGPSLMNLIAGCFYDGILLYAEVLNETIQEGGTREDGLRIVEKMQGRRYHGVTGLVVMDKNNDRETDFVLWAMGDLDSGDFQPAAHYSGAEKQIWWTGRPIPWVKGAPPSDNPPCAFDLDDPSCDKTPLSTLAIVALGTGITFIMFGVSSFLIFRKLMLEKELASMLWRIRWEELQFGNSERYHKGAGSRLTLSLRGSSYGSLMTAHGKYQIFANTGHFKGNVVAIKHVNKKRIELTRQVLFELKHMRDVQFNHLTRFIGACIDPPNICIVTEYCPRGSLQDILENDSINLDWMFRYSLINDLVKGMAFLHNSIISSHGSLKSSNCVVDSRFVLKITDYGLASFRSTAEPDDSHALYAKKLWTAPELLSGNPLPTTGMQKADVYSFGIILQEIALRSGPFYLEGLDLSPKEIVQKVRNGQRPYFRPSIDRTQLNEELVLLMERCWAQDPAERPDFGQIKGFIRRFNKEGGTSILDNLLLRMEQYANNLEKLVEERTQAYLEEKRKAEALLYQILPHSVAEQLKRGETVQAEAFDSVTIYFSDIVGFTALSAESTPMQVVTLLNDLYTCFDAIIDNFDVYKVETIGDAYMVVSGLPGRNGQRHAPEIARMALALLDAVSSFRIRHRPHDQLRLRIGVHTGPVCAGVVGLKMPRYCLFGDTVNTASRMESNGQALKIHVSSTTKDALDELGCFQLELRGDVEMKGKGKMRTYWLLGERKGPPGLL


Legend:
[1] = molecular target: T1, human NPRA on HEK293 cells, without …; experiment: FACS, HEK NPRA cells without ligand
Experimental: (§1) HEK NPRA cells are detached with Accutase (PAA Laboratories GmbH, Cat. No. L11-007, Austria), harvested by centrifugation (900 rpm, 4 minutes) and resuspended in FACS buffer (PBS/3% FCS/0.02% NaN3) to a final concentration of 10⁶ cells/ml. 100 μl of the cell suspension is transferred to each well of a 96 round bottom plate (TC Microwell 96U, Nunc). […] Cells are washed in 150 μl of FACS buffer, pelleted and resuspended in 50 μl of the solution containing the primary antibody comprising a BEL extract of Fabs, a diluted BEL extract or purified antibody diluted in FACS buffer and incubated on ice for 30 min. Cells are washed again in FACS buffer and resuspended in 50 μl of FACS buffer containing the secondary antibody (R-Phycoerythrin-conjugated Affipure F(ab′)₂ Fragment Goat Anti-Human IgG, Dianova) and incubated on ice for 45 min. Cells are washed twice with FACS buffer and resuspended in 200 μl of FACS buffer for analysis in the FACS Array (BD Biosciences).

[2] = molecular target: T2, human NPRB on HEK293 cells, without …; experiment: FACS, HEK NPRB cells without ligand
Experimental: as §1

Binder	binding result [1]	binding result [2]
5592 IgG4_Pro (antibody, V domains shown) VH: QVQLQQSGPGLVKPSQTLSLTCAISGDSVSSRSASWSWIRQSPGRGLEWLGRTYYRSHWYYEYAQSVKSRITINPDTSKNQFSLQLNSVTPEDTAVYYCARMDVPSFRYFDVWGQGTLVTVSS VL: not shown	no binding (tested: 20 nM)	no binding (tested: 20 nM)
5591 IgG4_Pro (antibody, V domains shown) VH: QVQLQQSGPGLVKPSQTLSLTCAISGDSVSSRSASWSWIRQSPGRGLEWLGRTYYRSHWYYEYAQSVKSRITINPDTSKNQFSLQLNSVTPEDTAVYYCARMDVPSFRYFDVWGQGTLVTVSS VL: not shown	no binding (tested: 20 nM)	no binding (tested: 20 nM)
